Laboratory results taken from PMC7031079, “ATBS1-INTERACTING FACTOR 2 negatively regulates dark- and brassinosteroid-induced leaf senescence through interactions with INDUCER OF CBF EXPRESSION 1” (Journal of Experimental Botany, 2019).

Biological target: T1, ICE1FL-myc (Arabidopsis thaliana, UniProt Q9LSE2 1-494)
T1 sequence (looked up): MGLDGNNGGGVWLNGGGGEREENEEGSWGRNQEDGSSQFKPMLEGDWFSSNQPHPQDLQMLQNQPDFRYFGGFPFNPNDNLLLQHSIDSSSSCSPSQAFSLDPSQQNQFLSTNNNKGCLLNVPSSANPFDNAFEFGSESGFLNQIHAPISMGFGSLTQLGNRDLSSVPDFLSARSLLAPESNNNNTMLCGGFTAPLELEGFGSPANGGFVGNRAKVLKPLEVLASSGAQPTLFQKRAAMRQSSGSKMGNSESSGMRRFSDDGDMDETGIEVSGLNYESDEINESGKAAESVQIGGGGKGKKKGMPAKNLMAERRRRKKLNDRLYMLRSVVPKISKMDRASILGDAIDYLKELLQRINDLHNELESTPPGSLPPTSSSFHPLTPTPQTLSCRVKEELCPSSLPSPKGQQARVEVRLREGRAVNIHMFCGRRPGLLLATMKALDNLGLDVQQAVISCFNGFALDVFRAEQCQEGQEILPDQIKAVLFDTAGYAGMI
Experiment: cell-based or functional assay

B1: AIF2FL-nYFP (natural protein, Arabidopsis thaliana, UniProt Q9C8Z9 1-221, looked up)
chain: MASLISDIEPPTSTTSDLVRRKKRSSASSAASSRSSASSVSGEIHARWRSEKQQRIYSAKLFQALQQVRLNSSASTSSSPTAQKRGKAVREAADRALAVSARGRTLWSRAILANRIKLKFRKQRRPRATMAIPAMTTVVSSSSNRSRKRRVSVLRLNKKSIPDVNRKVRVLGRLVPGCGKQSVPVILEEATDYIQALEMQVRAMNSLVQLLSSYGSAPPPI
In the case of B1, the “pCBF2::Luc reporter expression in tobacco leaves on co-expression of full-length AIF2 (p35S::AIF2FL-EGFP) and ICE1 (p35S::ICE1FL-EGFP), against the non-transformed mock control” value is reported as roughly 5 fold.
